Source: patent publication US20220112288A1

Legend:
[1] = target: human CD4 on cells (SKW3 cells; human PBMCs) (human) (UniProt P01730); assay: SKW3 FACS binning, OKT4a on SKW3 cells, anti-hu A647 secondary, without competing supernatant (background 5000)
[2] = target: human CD4 on cells (SKW3 cells; human PBMCs) (human) (UniProt P01730); assay: SKW3 FACS binning, RPA-T4-PE-Dazzle 594 on SKW3 cells without competing supernatant (background 783)
[3] = target: human CD4 on cells (SKW3 cells; human PBMCs) (human) (UniProt P01730); assay: SKW3 FACS binning, OKT4-A488 on SKW3 cells without competing supernatant (background 2163)

In the case of Human anti-human CD4 (OKT4a) (antibody), the Max Binding [1] is reported as 35000.

For “Mouse anti-human CD4 (RPA-T4), PE-Dazzle 594 conjugated (antibody)”, the Max Binding [2] was 15000.

“Mouse anti-human CD4 (OKT4), Alexa Fluor 488 conjugated (antibody)” showed a Max Binding [3] of 8200.
